# B1: BSI-502-008 (bispecific antibody, human IgG1, kappa)
# heavy: DIQMTQSPSSLSASVGDRVTITCRPTENIYSYLAWYQQKPGKAPKLLIYFARTLAEGVPSRFSGSGSGTDFTLTISSLQPEDFATYYCQHHYGTPWTFGGGTKVEIKGGGGSGGGGSGGGGSGGGGSQVQLVQSGAEVKKPGASVKVSCKASGYTFTTYWMHWVRQAPGQGLEWMGVIDPSDSDTTYNQKFKGRVTMTRDTSTSTVYMELSSLRSEDTAVYYCTRSLDGYYDYWGQGTLVTVSSGGGGSGGGGSEVQLVESGGGLVQPGGSLRLSCAASGFTFSTYGMSWVRQAPGKGLVWVATINSNGGSTSYPDSVKGRFTISRDNAKNTLYLQMNSLRAEDTAVYYCARFFRFRNAMDYWGQGTLVTVSSASTKGPSVFPLAPSSKSTSGGTAALGCLVKDYFPEPVTVSWNSGALTSGVHTFPAVLQSSGLYSLSSVVTVPSSSLGTQTYICNVNHKPSNTKVDKKVEPKSCDKTHTCPPCPAPEAQGGPSVFLFPPKPKDTLYITREPEVTCVVVDVSHEDPEVKFNWYVDGVEVHNAKTKPREEQYNSTYRVVSVLTVLHQDWLNGKEYKCQVSNKALPAPIEKTISKAKGQPREPQVYTLPPSRDELTKNQVSLTCLVKGFYPSDIAVEWESNGQPENNYKTTPPVLDSDGSFFLYSKLTVDKSRWQQGNVFSCSVMHEALHNHYTQKSLSLSPG
# light: DIQMTQSPSSLSASVGDRVTITCRTSENIYSYLAWYQQKPGKAPKFLVYNAKTLAEGVPSRFSGSGSGTDFTLTISSLQPEDFATYYCQHYYGPPTWTFGQGTKVEIKRTVAAPSVFIFPPSDEQLKSGTASVVCLLNNFYPREAKVQWKVDNALQSGNSQESVTEQDSKDSTYSLSSTLTLSKADYEKHKVYACEVTHQGLSSPVTKSFNRGEC
# notes: huC2C1A1A1-V15 IgG with an anti-TSLP scFv (VL-VH) at the N-terminus of the heavy chain; AQQ and YTE already stand in the entry
# How the values were obtained:
# [1] = molecular target: T1, recombinant human TSLP-his (human, UniProt Q969D9 29-159, biotin-labeled in the ELISAs); assay: SPR Biacore; TSLP-his amine-coupled to CM5 chip, antibody as analyte; 1:1 Langmuir fit
# T1 construct: In-house made; not shown: His tag at the C-terminus
# Method: Un-reacted moieties on the biosensor surface were blocked with ethanolamine. Then, serially diluted purified bispecific antibodies and the controls (2-fold serial dilution in HBS-EP⁺ buffer starting at 100 nM) were respectively flowed onto the chip at a flow rate of 30 μL/min. The antigen-antibody association kinetics was followed for 4 minutes and the dissociation kinetics was followed for 13 minutes.
# [2] = molecular target: T2, recombinant human IL4Rα-his (human, UniProt P24394 26-231, limits assumed, biotin-labeled in the capture ELISA); assay: capture ELISA: antibody captured on anti-human IgG Fc F(ab')2, biotin human IL4Rα-his, SA-HRP
# T2 construct: In-house made; not shown: His tag at the C-terminus
# [3] = molecular target: T2, recombinant human IL4Rα-his; assay: SPR Biacore T200; antibody captured on anti-human IgG CM5 chip, IL4Rα-his as analyte; 1:1 Langmuir fit
# Outline: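 Antibodies captured on anti-human IgG CM5 chip (bispecifics at 66.67 nM, controls 10 μg/mL), then serially diluted recombinant human IL4Rα-his (C-terminal His tag) in HBS EP flowed at 30 μL/min. Association and dissociation curves fit to 1:1 Langmuir model.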
# [4] = molecular target: T2, recombinant human IL4Rα-his; assay: dual-binding ELISA: coated human IL4Rα-his, antibody titrated, detection with biotin human TSLP-his and SA-HRP; signal needs both antigens bound
# Method: For the dual-binding ELISA, 96-well ELISA plates were firstly coated with 100 μL 1 μg/mL human IL4Rα-his protein (IL4Rα of SEQ ID NO: 33 with His tag at C terminus, prepared in-house) in PBS overnight at 4° C. ELISA plates were washed 4 times with wash buffer (PBS+0.05% Tween-20, PBST) and then blocked with 200 μL/well blocking buffer (5% w/v non-fatty milk in PBST) for 2 hours at 37° C. […] ELISA plates were washed again and incubated with SA-HRP (100 μl/well) for 40 minutes at 37° C. After the final wash, 100 μL/well TMB (Innoreagents) was added. The reaction was stopped 15 minutes later at room temperature with 50 μL/well 1M H₂SO₄, and the absorbance was read on a microplate reader using dual wavelength mode with 450 nm for TMB and 630 nm as the reference wavelength. The OD (450-630) values were plotted against antibody concentration. Data was analyzed using Graphpad Prism and EC₅₀ values were reported.
binder,measurement,setting,value
B1,Kd,[1],7.58 pM
same,koff,[1],4.43e-06 s⁻¹
same,kon,[1],585000 M⁻¹ s⁻¹
same,EC50,[2],32.3 pM
same,Kd,[3],3150 pM
same,koff,[3],0.000436 s⁻¹
same,kon,[3],138000 M⁻¹ s⁻¹
same,EC50,[4],107 pM

# Reference: patent US20260109758A1 (BIOSION, published 2026)
